Read-outs that look alike come from different tables or passages of the source. No end group written: not given here.
Columns and labels:
human Y4 receptor [1] = target: T1, human Y4 receptor (human, UniProt P50391 1-375); assay: 125I-PP displacement
human Y4 receptor [2] = target: T1, human Y4 receptor; assay: 125I-PP displacement; remark: listed apart in the source

T1 sequence (P50391 whole entry): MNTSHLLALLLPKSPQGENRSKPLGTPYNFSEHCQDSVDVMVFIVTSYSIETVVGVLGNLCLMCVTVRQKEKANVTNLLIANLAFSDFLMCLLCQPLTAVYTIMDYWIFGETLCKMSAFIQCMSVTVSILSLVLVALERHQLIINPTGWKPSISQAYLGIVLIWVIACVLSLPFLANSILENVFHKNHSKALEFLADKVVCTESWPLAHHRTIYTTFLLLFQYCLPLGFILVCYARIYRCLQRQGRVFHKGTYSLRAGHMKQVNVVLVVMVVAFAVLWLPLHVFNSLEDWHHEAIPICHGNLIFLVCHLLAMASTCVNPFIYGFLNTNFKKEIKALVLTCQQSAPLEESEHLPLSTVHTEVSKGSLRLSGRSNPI

IC50 (human Y4 receptor [1]) | IC50 (human Y4 receptor [2]) | Binder
0.11 nM |  | PLEPVYPGDDATPQQMAQYAAALRRYINMLTRPRY [6666]
 | 0.069 nM | PLEPVYPGDNATPEELVKYYSALRRYINMLTRPRY [7101]
 | 0.165 nM | GAPLEPVYPGDNATPEQMAHYAAELRRYINTLTRPRY [7159]
0.17 nM |  | APLEPVYPGDNATPEQMAQYAADLRRYINMLTRPHRY (ends and bridges not checked) [compound of SEQ ID NO:62 (code 6659)]
0.16 nM |  | APLEPVYPGDDATPEELNHYYSALRRYINMLTRPRY [6841]
0.2 nM |  | APLEPMYPGDYATPEQMAQYETQLRRYINTLTRPRY [6803]
0.11 nM |  | APLEPVYPGDNATPEELVKYYIELRRYINMLTRPRY [6851]
0.19 nM |  | APLEPFYPGDNATPEEIVKYYSALRRYINMLTRPRY [6844]
0.17 nM |  | APLEPVYPGDNATPEELVKYFVGLRRYINMLTRPRY [6850]
0.17 nM |  | APLEPFYPGDNATPEELVKYYSALRRYINMLTRPRY [6843]
0.15 nM |  | APLEPVYPGDNATPEELVKYFIELRRYINMLTRPRY [6849]
 | 0.084 nM | APLEPVYPGDNATPEELVKYYSALRRYINMLTRHRY [7113]
 | 0.15 nM | APLEPVYPGDNATPEELVHYYSALRHYINMLTRPRY [7105]
0.12 nM |  | APLEPVYPGDNATPEELVKYFSALRRYINMLTRPRY [6848]
0.076 nM |  | KPLEPVYPGDNATPEELNRYYASLRRYINMLTRPRY [compound of SEQ ID NO:72 (code 6674)]
0.12 nM |  | APLEPVYPGDNATPEELNHYYSALRRYINMLTRPRY [6839]
 | 0.12 nM | APLEPVYPGDNATPEEINRYYSALRRYINMLTRPRY [7121]
0.089 nM |  | KPLEPVYPGDNATPEELNRYYASLRRYINMLTRPRY [compound of SEQ ID NO:73 (code 6675)]
0.15 nM |  | APLEPFYPGDNATPEELVKYYASLRRYINMLTRPRY [6846]
0.16 nM |  | APLEPVYPGDNATPEELNRYYASLRKYINMLTRPRY [6673]

IC50 (human Y4 receptor [1]) | IC50 (human Y4 receptor [2]) | Binder
0.28 nM |  | AAPLEPVYPGDNATPEQMAQYAADLRKYINMLTRPRY [6668]
0.25 nM |  | AAPLEPVYPGDNATPEQLAQYAADLRRYINLLTRPRY [6657]
0.32 nM |  | AAPLEPVYPGDNATPEQMAQYAADLRKYINLLTRPRY [6669]
0.22 nM |  | AAPLEPVYPGDDATPQQMAQYAAELRKYINMLTRPRY [6814]
0.2 nM |  | AAPLEPFYPGDNATPEQMAQYAAALRRYINLLTRPRY [6811]
0.16 nM |  | AAPLEPVYPGDNATPEQMAQYAADLRRYINTLTRPRY [6658]
0.69 nM |  | CAPLEPVYPGDNATPEQMAQYAADLRRYINMLTRPRY [6836]
 | 0.223 nM | APLEPVYPGDNATPEQNLAHYAAELRRYINMLTRPRY [7164]
0.19 nM |  | YYYAPLEPVYPGDYATPEQRAQYETQLRRYINTLTRPRY [6806]
0.15 nM |  | YYYAPLEPVYPGDNATPEQRAQYAADLRRYINTLTRPRY [6808]
0.2 nM |  | APLEPFYPGDNATPEQMAQYAAELRRYINMLTRPRY [6829]
0.11 nM |  | APLEPFYPGDNATPEQMAQYAAALRRYINLLTRPRY [6810]
0.13 nM |  | APLEPVYPGDNATPEQMAQYAAELRRYINMLTRPRY [6823]
0.13 nM |  | APLEPVYPGDDATPQQMARYAAELRRYINMLTRPRY [6815]
0.24 nM |  | APLEPVYPGDDATPQQMAQYAAELRRYINLLTRPRY [6812]
0.15 nM |  | APLEPFYPGDDATPQQMARYAAELRRYINMLTRPRY [6816]
0.18 nM |  | APLEPVYPGDDATPQQMAQYAAEMRRYINMLTRPRY [6667]
0.21 nM |  | APLEPFYPGDNATPEQMAQYAAALRKYINMLTRPRY [6809]
0.07 nM |  | APLEPEYPGDDATPQQMARYAAELRRYINMLTRPRY [6827]
 | 0.106 nM | APLEPVYPGDNATPEQMAQYAAALRRYINKLTRPRY [compound of SEQ ID NO:167 (code 7214)]

IC50 (human Y4 receptor [1]) | IC50 (human Y4 receptor [2]) | Binder
0.19 nM |  | APLEPVYPGDNATPEQRAQYAADLRRYINTLTRPRY [6807]
0.26 nM |  | APLEPVYPGDNATPEQMAQYAADLRRYINMCTRPRY [6835]
0.14 nM |  | APLEPEYPGDDATPQQMAQYAAELRRYINMLTRPRY [6819]
0.2 nM |  | APLEPFYPGDDATPQQMAQYAAELRRYINMLTRPRY [6817]
0.12 nM |  | APLEPFYPGDNATPEQMARYAAELRRYINMLTRPRY [6828]
0.1 nM |  | PAPLEPVYPGDNATPEELVKYYSALRRYINMLTRPRY [6861]
0.16 nM |  | AAPLEPVYPGDNATPEELVKYYSALRRYINMLTRPRY [6863]
0.11 nM |  | AAPLEPVYPGDNATPEELVKYYSALRRYINMLTRPRY [6862]
 | 0.166 nM | PAPLEPVYPGDNATPEELVKYYSALRRYINMLTRHRY [7114]
0.29 nM |  | PAPLEPVYPGDDATPQQMAQYAAELRRYINMLTRPRY [6865]
0.12 nM |  | AAPLEPFYPGDDATPQQMAQYAAALRRYINMLTRPRY [6665]
0.15 nM |  | AAPLEPFYPGDDATPQQMAQYAAELRRYINMLTRPRY [6818]
 | 0.165 nM | PAPLEPFYPGDDATPQQMAHYAAELRRYINMLTRPRY [7145]
 | 0.169 nM | PAPLEPEYPGDDATPQQMAHYAAELRRYINMLTRPRY [7150]
0.15 nM |  | HAPLEPVYPGDNATPEELNHYYASLRRYINMLTRPRY [6859]
0.11 nM |  | HAPLEPVYPGDNATPEELVKYYSALRRYINMLTRPRY [6860]
0.17 nM |  | AAPLEPVYPGDNATPEELNHYYSALRRYINMLTRPRY [6840]
0.22 nM |  | HAPLEPVYPGDNATPEELNQYYASLRRYINMLTRPRY [6857]
 | 0.11 nM | PAPLEPVYPGDNATPEELVKYYASLRRYINMLTRPRY [7110]
